Laboratory results reported in PMC6563293.
Like-named read-outs stand apart in the source and are kept apart here.

System: MBP::P1 (Wheat streak mosaic virus (isolate Sidney 81))
Experiment: EMSA

21-nt GFP ds-siRNA
K half (5' phosphate): 0.03 nmol

24-nt GFP ds-siRNA
K half (5' phosphate): 0.03 nmol

180-nt GFP dsRNA
K half: 0.03 nmol
